Data taken from patent US20040141918.

Tested on: Int6 protein expressed in bacteria using the QUIA Express Type 4 vector, purified
Sequence (chain, as listed by the source): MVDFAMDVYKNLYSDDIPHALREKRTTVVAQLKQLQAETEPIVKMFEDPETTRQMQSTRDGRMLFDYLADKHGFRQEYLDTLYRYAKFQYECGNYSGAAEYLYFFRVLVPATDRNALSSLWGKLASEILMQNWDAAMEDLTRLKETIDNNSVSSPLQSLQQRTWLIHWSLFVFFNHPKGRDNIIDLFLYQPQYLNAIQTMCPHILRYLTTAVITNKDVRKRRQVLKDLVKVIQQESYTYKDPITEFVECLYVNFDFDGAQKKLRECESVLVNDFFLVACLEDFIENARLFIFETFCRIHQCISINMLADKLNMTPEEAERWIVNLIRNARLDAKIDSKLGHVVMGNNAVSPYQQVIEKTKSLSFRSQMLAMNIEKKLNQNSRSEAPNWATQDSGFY

For protein kinase C, the “phosphorylation by PKC” value was “shown to be phosphorylated by PKC (data not shown)”.
